Assay results published in article PMC8427598, “Identification and Characterization of an Antennae-Specific Glutathione S-Transferase From the Indian Meal Moth” (Frontiers in Physiology, 2021).

Tested on: O=[N+]([O-])c1ccc(Cl)c([N+](=O)[O-])c1
Experiment: purified protein
Settings: 50 mM GSH, acetate-phosphate buffer pH 7.5 (b1, b25; b45 prints optimum pH 7.0), 35 °C

PiGSTd1 (Plodia interpunctella)
Km: 229.2 ± 18.05 µM
